From US20040248790A1, “Novel secretory proteins and dna thereof” (priority 2001, published 2004)
Where no end group is shown, it is not given here.

Key:
Format in all cases: cell-based
AQ27 [1] = biological target: T1, AQ27 (Homo sapiens, UniProt Q96P65); experiment: CRE-luciferase reporter gene assay in HEK 293 cells transiently expressing AQ27 receptor; set-up: expressed in transfected cells; host or cells: HEK 293 cells, transient, vector pAKKO-111H, co-transfected with pCRE-Luc; settings: pCRE-Luc reporter, peptide 10, 1 and 0.1 μM in Example 9, 4 hours
T1 sequence (Q96P65 1-431): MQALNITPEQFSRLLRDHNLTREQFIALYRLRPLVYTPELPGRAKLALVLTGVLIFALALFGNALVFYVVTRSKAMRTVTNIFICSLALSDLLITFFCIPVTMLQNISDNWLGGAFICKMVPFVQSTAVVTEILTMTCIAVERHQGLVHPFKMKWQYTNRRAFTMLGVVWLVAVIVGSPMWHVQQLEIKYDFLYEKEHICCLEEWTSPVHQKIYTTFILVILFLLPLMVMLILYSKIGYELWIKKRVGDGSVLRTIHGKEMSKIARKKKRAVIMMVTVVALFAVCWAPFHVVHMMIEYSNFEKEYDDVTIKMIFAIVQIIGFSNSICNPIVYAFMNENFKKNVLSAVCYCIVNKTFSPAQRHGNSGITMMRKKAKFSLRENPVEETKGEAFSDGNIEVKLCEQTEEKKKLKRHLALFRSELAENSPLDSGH
From the text: (§1) The specific stimulating activity of novel polypeptides F synthesized in Example 8 on AQ27 receptor (SEQ ID NO: 31) and human OT7T022 receptor (SEQ ID NO: 35) was detected by using, as an indicator, the amount of a reporter gene product (luciferase) produced by induction of expression of a cAMP response element (CRE) promoter.
The HEK 293 cells were suspended in a growth medium (DMEM [Dulbecco's Modified Eagle Medium] (Gibco BRL) containing 10% fetal bovine serum (Gibco BRL)), and plated at a density of 1×10^5 cells/well on a black 96-well plate (Becton Dickinson Company, Ltd.) coated with collagen. After the cells were cultured overnight at 37° C. in 5% CO2, the cells were transfected in the following manner with a reporter gene-containing plasmid pCRE-Luc (Clontech) and simultaneously with an expression vector plasmid prepared by inserting AQ27 gene (SEQ ID NO: 32) and human OT7T022 gene (SEQ ID NO: 36) by a known method into an animal cell expression vector pAKKO-111H (the same plasmid vector as pAKKO-1.11H described in Biochem. Biophys. Acta, Hinuma, S. et al., 1219, 251-259, 1994) or with the intact pAKKO-111H not containing AQ27 gene.
OPTI-MEM-I (Gibco BRL) and Lipofectamine™ 2000 Reagent (Gibco BRL) were mixed in a ratio of 24:1 to prepare a Lipofectamine dilution. Separately, OPTI-MEM-I, AQ27 expression vector plasmid or the intact vector plasmid (240 ng/μl) and pCRE-Luc (240 ng/μl) were mixed in a ratio of 24:0.9:0.1 to prepare a DNA dilution. The Lipofectamine dilution and the DNA dilution were mixed in equal amounts and left for 20 minutes at room temperature, to form a DNA/Lipofectamine complex, and 25 μl of the complex was added to the plate where the HEK 293 cells were cultured, and the cells were further cultured overnight at 37° C. in 5% CO2.
(§2) The HEK 293 cells thus transfected were washed with an assay medium (DMEM containing 0.1% bovine serum albumin), and then each of novel polypeptides F synthesized in Example 8, diluted with the assay buffer, was added at concentrations of 10, 1 and 0.1 μM respectively to the cells which were then cultured at 37° C. in 5% CO2 for 4 hours. The culture supernatant was discarded, and 50 μl Pikka Gene LT2.0 (Toyo Ink Mfg. Co., Ltd.), that is, a substrate for measurement of luciferase activity, was added thereto, and the fluorescence of luciferase was measured with a plate reader (ARVO sx multilabel counter, Wallac).
First, full-length human novel secretory protein F gene (SEQ ID NO: 24) was introduced in a usual manner into an expression vector […]. […] The AQ27-specific activity was detected by using an indicator the amount of the reporter gene product (luciferase) produced by induction with expression of cAMP response element (CRE) promoter.

mock CHO cells [2] = experiment: cAMP production-suppressing activity in mock CHO cells (control); settings: mock CHO cells as the control; forskolin
Description: (§3) AQ27-expressing CHO cells (FIG. 24) established by a method known per se and mock CHO cells (FIG. 25) serving as a control were plated on a 96-well plate (Becton Dickinson Company, Ltd.) at a density of 4×10^4 cells/well and cultured overnight. The assay buffer used was a buffer prepared by adding 0.1% bovine serum albumin and 0.2 mM 3-isobutyl-1-methylxanthine to a Hanks' balanced salt solution. The cells were washed twice with the assay buffer and pre-incubated at 37° C. for 30 minutes. The cells were washed again twice with the assay buffer, and a sample prepared in the assay buffer was added thereto, and the cells were incubated at 37° C. for 30 minutes. To evaluate the cAMP production-suppressing activity, a sample composed exclusively of 2 μM forskolin (FSK, Wako Pure Chemical Industries, Ltd.) promoting production of cAMP and a sample containing 2 μM FSK and 10^−7 to 10^−5 M novel polypeptide F: Arg-Lys-Lys-Gly-Gly-Phe-Ser-Phe-Arg-Phe-NH2 (positions 124 to 133 in SEQ ID NO: 23) were compared. A supernatant of the cells was discarded, and the amount of cAMP produced in the cells was measured by cAMP Screen System (Applied Biosystems).

AQ27 [3] = biological target: T1, AQ27; experiment: cAMP production-suppressing activity in AQ27-expressing CHO cells; set-up: expressed in transfected cells; host or cells: CHO cells; settings: 2 μM forskolin; for cAMP production induced by FSK in AQ27-expressing CHO: 30 minutes at 37° C., 10^−7 to 10^−5 M peptide in Example 12
Description: as §3

mock CHO cells [4] = experiment: Intracellular calcium ion change (FLIPR) in mock CHO cells (control); settings: mock CHO cells as the control
AQ27 [5] = biological target: T1, AQ27; experiment: Intracellular calcium ion release (FLIPR) in AQ27-expressing CHO cells; set-up: expressed in transfected cells; host or cells: CHO cells; settings: for peptide concentration at which intracellular calcium ion mobilizing activity was recognized in CHO-AQ27: AQ27-expressing CHO cells; for activity in promoting intracellular calcium ion release in AQ27-expressing CHO cells: peptide 10 μM and 1 μM compared with absence of the sample, Fluo 3-AM
Description: AQ27-expressing CHO cells established by a method known per se were plated on a 96-well black culture plate (Costar) at a density of 4×10^4 cells/well and cultured overnight. The assay buffer used was a buffer prepared by adding 20 mM HEPES, pH 7.4 (Dojin Kagaku) and 2.5 mM probenecid (Sigma) to a Hanks' balanced salt solution (HBSS). The medium for the cells were removed, and a solution prepared by adding 4 μM Fluo 3-AM (Dojindo) and 0.04% pluronic acid (Molecular Probes) to the assay buffer was added thereto and incubated at 37° C. for 1 hour. The cells were washed with the assay buffer to remove an excess of Fluo 3 and set in FLIPR (Molecular Devices). A sample dissolved in the assay buffer was also set in FLIPR, and the sample was added to the cells by a built-in manipulator, and a change in fluorescence depending on the concentration of intracellular calcium ions generated by irradiation with an excitation light was measured. As a result, the reactions shown in FIGS. 26 and 27 were detected respectively in the presence of novel peptide F: Arg-Lys-Lys-Gly-Gly-Phe-Ser-Phe-Arg-Phe-NH2 (positions 124 to 133 (RKKGGFSFRF—NH2) in SEQ ID NO: 23) and novel polypeptide F: Gly-Gly-Phe-Ser-Phe-Arg-Phe-NH2 (positions 127 to 133 (GGFSFRF—NH2) in SEQ ID NO: 23) in an amount of 10 μM (▴) and 1 μM (□), as compared with the absence of the sample (◯), and the activity of each peptide in promoting intracellular calcium ion release in the AQ27-expressing CHO cells was detected.

human OT7T022 receptor = biological target: T2, human OT7T022 receptor (Homo sapiens, UniProt Q9GZQ6); experiment: CRE-luciferase reporter gene assay in HEK 293 cells transiently expressing OT7T022 receptor; settings: HEK 293 cells transiently expressing human OT7T022 receptor; pCRE-Luc reporter; peptide 10, 1 and 0.1 μM in Example 9
T2 construct: expressed in transfected cells; host or cells: HEK 293 cells, transient, vector pAKKO-111H, co-transfected with pCRE-Luc
T2 sequence (Q9GZQ6 whole entry): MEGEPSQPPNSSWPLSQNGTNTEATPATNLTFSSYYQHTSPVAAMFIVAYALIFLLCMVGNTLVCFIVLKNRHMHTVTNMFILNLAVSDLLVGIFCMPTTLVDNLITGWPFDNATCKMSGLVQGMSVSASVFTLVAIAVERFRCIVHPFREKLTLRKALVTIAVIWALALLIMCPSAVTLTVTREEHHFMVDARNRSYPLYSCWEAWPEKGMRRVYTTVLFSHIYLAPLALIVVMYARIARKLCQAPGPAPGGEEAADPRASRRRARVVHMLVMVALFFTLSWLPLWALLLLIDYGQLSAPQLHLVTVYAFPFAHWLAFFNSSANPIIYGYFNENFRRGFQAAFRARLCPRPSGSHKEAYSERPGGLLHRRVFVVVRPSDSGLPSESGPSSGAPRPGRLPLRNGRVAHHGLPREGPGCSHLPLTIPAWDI
From the text: as §1
The HEK 293 cells were suspended in a growth medium (DMEM [Dulbecco's Modified Eagle Medium] (Gibco BRL) containing 10% fetal bovine serum (Gibco BRL)), and plated at a density of 1×10^5 cells/well on a black 96-well plate (Becton Dickinson Company, Ltd.) coated with collagen. […]
as §2

Row | Substance | activity of luciferase stimulated by adding forskolin (FSK), AQ27 receptor (AQ27 [1]) | cAMP production-suppressing activity in mock CHO cells (mock CHO cells [2]) | peptide concentration at which FSK-induced cAMP production was suppressed in AQ27-expressing CHO (AQ27 [3]; AQ27-expressing CHO cells) | intracellular calcium ion mobilizing activity in mock CHO cells (mock CHO cells [4]) | peptide concentration at which intracellular calcium ion mobilizing activity was recognized in CHO-AQ27 (AQ27 [5]) | activity of luciferase stimulated by adding FSK, human OT7T022 receptor (human OT7T022 receptor) | cAMP production induced by FSK in AQ27-expressing CHO (AQ27 [3]) | activity in promoting intracellular calcium ion release in AQ27-expressing CHO cells (AQ27 [5])
1 | Ala-Ser-Gln-Pro-Gln-Ala-Leu-Leu-Val-Ile-Ala-Arg-Gly-Leu-Gln-Thr-Ser-Gly-Arg-Glu-His-Ala-Gly-Cys-Arg-Phe-NH2 (ASQPQALLVIARGLQTSGREHAGCRF-NH2) [A1-F28-NH2] | increase in luciferase activity | not recognized | at least 10 M | not recognized | at least 10^−6 M |  |  | 
2 | Arg-Lys-Lys-Gly-Gly-Phe-Ser-Phe-Arg-Phe-NH2 (RKKGGFSFRF-NH2) | increasing the luciferase activity |  |  |  |  | suppressing the luciferase activity | suppressed | detected
3 | Gly-Gly-Phe-Ser-Phe-Arg-Phe-NH2 (GGFSFRF-NH2) |  |  |  |  |  |  |  | detected
4 | Pyr-Asp-Glu-Gly-Ser-Glu-Ala-Thr-Gly-Phe-Leu-Pro-Ala-Ala-Gly-Glu-Lys-Thr-Ser-Gly-Pro-Leu -Gly-Asn-Leu-Ala-Glu-Glu-Leu-Asn-Gly-Tyr-Ser-Arg-Lys-Lys-Gly-Gly-Phe-Ser-Phe Arg-Phe-NH2 (QDEGSEATGFLPAAGEKTSGPLGNLAEELNGYSRKKGGFSFRF; N-terminal pyroglutamate, C-terminal amide; Human) [Pyr1-F43-NH2] | increase in luciferase activity | not recognized |  | not recognized | at least 10^−8 M |  | suppressed | 
5 | Thr-Ser-Gly-Pro-Leu-Gly-Asn-Leu-Ala-Glu-Glu-Leu-Asn-Gly-Tyr-Ser-Arg-Lys-Lys-Gly-Gly-Phe-Ser-Phe Arg-Phe-NH2 (TSGPLGNLAEELNGYSRKKGGFSFRF-NH2) [T1-F26-NH2] | increase in luciferase activity |  |  |  |  |  |  | 
